Test results taken from patent US20220220185A1 (CELL NETWORKS, published 2022).
Each block holds one binder with its values, some of them ahead of it.

What was measured:
Sm-Gβ1 with untagged Gγ2 [1] = target: T1, Sm-Gβ1 with untagged Gγ2 (human, UniProt P62873 2-340; P59768 2-68); test: NanoBiT split-luciferase complementation in HEK293 cells (NanoBiT-Gq: Gαq-Lg, Sm-Gβ1, Gγ2; pairing from paragraph 252)
T1 construct: whole, on cells; also called Sm-Gβγ; SmBiT-fused Gβ1 subunit and native Gγ2 subunit
T1 sequence (P62873 other isoform, or with tags, fused parts or gaps, chain 1 of 2): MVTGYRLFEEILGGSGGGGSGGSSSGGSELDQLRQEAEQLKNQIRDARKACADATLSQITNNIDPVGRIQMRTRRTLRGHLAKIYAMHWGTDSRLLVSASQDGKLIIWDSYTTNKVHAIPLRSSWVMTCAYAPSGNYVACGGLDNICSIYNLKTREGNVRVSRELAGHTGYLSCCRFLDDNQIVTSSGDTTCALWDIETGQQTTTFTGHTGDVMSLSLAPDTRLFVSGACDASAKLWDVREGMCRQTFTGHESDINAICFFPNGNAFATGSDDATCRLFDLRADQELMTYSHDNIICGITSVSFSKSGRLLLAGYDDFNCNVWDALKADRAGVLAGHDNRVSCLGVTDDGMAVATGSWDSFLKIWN
T1 sequence (P59768 2-68, chain 2 of 2): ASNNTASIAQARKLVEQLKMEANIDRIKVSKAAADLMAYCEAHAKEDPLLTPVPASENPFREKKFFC
Procedure: (§1) To complement the inventive chimeric G-protein-based TGFα shedding assay, the inventors made an additional inventive assay in which dissociation of the Gα subunit from the Gβγ subunits, a critical process of G-protein activation, is measured via a luciferase complementation system. Bioluminescence Resonance Energy Transfer (BRET) between a Renilla luciferase-inserted Gα subunit and a GFP10-fused Gβ or Gγ subunit was previously developed to measure Gα-Gβγ dissociation (Gales et al., 2005). Here, they replaced the BRET pair with a split luciferase (NanoLuc Binary Technology; NanoBiT) (Dixon et al., 2016). […] They generated a series of Gα-Lg, Sm-Gβ and Sm-Gγ subunits and optimized a combination.
(§2) Plasmid transfection was performed in a 6-well plate with a mixture of 100 ng Gα-Lg-encoding plasmid, 500 ng Sm-Gβ-encoding plasmid, 500 ng untagged Gγ₂-encoding plasmid, 200 ng GPCR-encoding plasmid with or without 100 ng RIC8-encoding plasmid (per well, hereafter).

Sm-Gβ1 with untagged Gγ2 [2] = target: T1, Sm-Gβ1 with untagged Gγ2; test: NanoBiT split-luciferase complementation in HEK293 cells (NanoBiT-G12: Gα12-Lg, Sm-Gβ1, Gγ2; pairing from paragraph 252)
Procedure: as §1, §2

Sm-Gβ1 with untagged Gγ2 [3] = target: T1, Sm-Gβ1 with untagged Gγ2; test: NanoBiT split-luciferase complementation in HEK293 cells (NanoBiT-G13: Gα13-Lg, Sm-Gβ1, Gγ2; pairing from paragraph 252)
Procedure: as §1, §2

Sm-Gβ1 with untagged Gγ2 [4] = target: T1, Sm-Gβ1 with untagged Gγ2; test: NanoBiT split-luciferase complementation in HEK293 cells (NanoBiT-Gs: Gαs-Lg, Sm-Gβ1, Gγ2; pairing from paragraph 252)
Procedure: as §1, §2

binding result (Sm-Gβ1 with untagged Gγ2 [1]): binds
B1: Gαq-Lg (other, human, UniProt P50148 1-359, looked up)
chain: MTLESIMACCLSEEAKEARRINDEIERQLRRDKRDARRELKLLLLGTGESGKSTFIKQMRIIHGSGYSDEDKRGFTKLVYQNIFTAMQAMIRAMDTLKIPYKYEHNKAHAQLVREVDVEKVSAFENPYVDAIKSLWNDPGIQECYDRRREYQLSDSTKYYLNDLDRVADPAYLPTQQDVLRVRVPTTGIIEYPFDLQSVIFRMVDVGGQRSERRKWIHCFENVTSIMFLVALSEYDQVLVESDNENRMEESKALFRTIITYPWFQNSSVILFLNKKDLLEEKIMYSHLVDYFPEYDGPQRDAQAAREFILKMFVDLNPDSDKIIYSHFTCATDTENIRFVFAAVKDTILQLNLKEYNLV
notes: whole, on cells; the LgBiT insert is not placed; also called NanoBiT-Gq (Gα subunit); Gq

binding result (Sm-Gβ1 with untagged Gγ2 [2]): binds
B2: Gα12-Lg (other, human, UniProt Q03113 1-381, looked up)
chain: MSGVVRTLSRCLLPAEAGGARERRAGSGARDAEREARRRSRDIDALLARERRAVRRLVKILLLGAGESGKSTFLKQMRIIHGREFDQKALLEFRDTIFDNILKGSRVLVDARDKLGIPWQYSENEKHGMFLMAFENKAGLPVEPATFQLYVPALSALWRDSGIREAFSRRSEFQLGESVKYFLDNLDRIGQLNYFPSKQDILLARKATKGIVEHDFVIKKIPFKMVDVGGQRSQRQKWFQCFDGITSILFMVSSSEYDQVLMEDRRTNRLVESMNIFETIVNNKLFFNVSIILFLNKMDLLVEKVKTVSIKKHFPDFRGDPHRLEDVQRYLVQCFDRKRRNRSKPLFHHFTTAIDTENVRFVFHAVKDTILQENLKDIMLQ
notes: whole, on cells; the LgBiT insert is not placed; also called NanoBiT-G12 (Gα subunit); G12

binding result (Sm-Gβ1 with untagged Gγ2 [3]): binds
B3: Gα13-Lg (other, human, UniProt Q14344 1-377, looked up)
chain: MADFLPSRSVLSVCFPGCLLTSGEAEQQRKSKEIDKCLSREKTYVKRLVKILLLGAGESGKSTFLKQMRIIHGQDFDQRAREEFRPTIYSNVIKGMRVLVDAREKLHIPWGDNSNQQHGDKMMSFDTRAPMAAQGMVETRVFLQYLPAIRALWADSGIQNAYDRRREFQLGESVKYFLDNLDKLGEPDYIPSQQDILLARRPTKGIHEYDFEIKNVPFKMVDVGGQRSERKRWFECFDSVTSILFLVSSSEFDQVLMEDRLTNRLTESLNIFETIVNNRVFSNVSIILFLNKTDLLEEKVQIVSIKDYFLEFEGDPHCLRDVQKFLVECFRNKRRDQQQKPLYHHFTTAINTENIRLVFRDVKDTILHDNLKQLMLQ
notes: whole, on cells; the LgBiT insert is not placed; also called NanoBiT-G13 (Gα subunit); G13

binding result (Sm-Gβ1 with untagged Gγ2 [4]): binds
B4: Gαs-Lg (other, human, UniProt P63092 2-394, looked up)
chain: GCLGNSKTEDQRNEEKAQREANKKIEKQLQKDKQVYRATHRLLLLGAGESGKSTIVKQMRILHVNGFNGEGGEEDPQAARSNSDGEKATKVQDIKNNLKEAIETIVAAMSNLVPPVELANPENQFRVDYILSVMNVPDFDFPPEFYEHAKALWEDEGVRACYERSNEYQLIDCAQYFLDKIDVIKQADYVPSDQDLLRCRVLTSGIFETKFQVDKVNFHMFDVGGQRDERRKWIQCFNDVTAIIFVVASSSYNMVIREDNQTNRLQEALNLFKSIWNNRWLRTISVILFLNKQDLLAEKVLAGKSKIEDYFPEFARYTTPEDATPEPGEDPRVTRAKYFIRDEFLRISTASGDGRHYCYPHFTCAVDTENIRRVFNDCRDIIQRMHLRQYELL
notes: whole, on cells; the LgBiT insert is not placed; also called NanoBiT-Gs (Gα subunit); Gs
